Assay results taken from a protein production outcome set (Wang et al. 2014).

Assay: label from the status in PepcDB records
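Also: failed if final PepcDB status was selected cloned or expressed and not failed if soluble or beyond.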

Sequence | protein production
MATEKLPPLERYIRMLELLTAFPDGLALSELSAMIELPKASAHRLIKTLQELELAATSSPGSATYVTGPRLRKLAFMSADAQWVVAILRPFLRELTQEMGETAFVARLEGASVRTIAFEAPETPWRGFILPGYEMHPNAAASAKAILAFQDAATLKRALREPFERLTPQTNLSKERLLEEYAAIRQSGVATCIGEIDEGLAAVAVPIEVGGAAGLYSLGLTGPMNRVMALGVERAAERMMAYAARMASGLSAGLSAESARAAGLS | failed
MATGKISKRSIDALRPNASNQFLWDTDLKGFGAKITPAGAISYVLQFRMGGREASTRRYTIGAHGSPWTPTTARAEAERLLLLIGQGVDPVDADKQRRREAVDLAFANYAERFARSCKGDGWRRLVERAIRLYLTPVLGKKALPAINRTDVVSVFDNMPADQVANRRNVFAVLRRLFRWAVSRGDLDRSPMEGMETPPPVKARERWLSDDELRLIWNAAPECHRCFGPIVRLLIATGQRREEVSGMRWSELSRTDKLWTLPGDRTKNGEPNTIPLNDLAVAELDAAAGGDKWPRKGRVFATSTGAGFTGYAKGKDKLDRLIELAEGEPLPPWRLHDLRRTLATNFQRLGVRFEVTEAVLNHVGGSRSGVAGIYQRHDWKEEKRQALDDWNSHLEQILMRPSPGNRQAASQAAADLDK | failed
MATGNTLLAVYRSRIGEPTTDDEAYGYWLFVIGIVLGIVGLLLFYLTASRSTPRQFGYLLGAIGLISLFAGPTIRLPLTRRGLILTYLGAVVGLVAMVWFTTFYPSNWTGPEGNPAVTLYIVGLGLMAVGAVVSPLLTGRKEAYDKAVQTAEDATEVAEQATQEADRASREATQQSQTADRATRERNRLAEQLATSEAAREELATVTEASEAELAAAHATIAAAMDSKATFELYEDAGGKYRWRLRHRNANVIADSAQGYSSRQKAMQGLRSVQSNAAGGAVVFFEDATEDDTAEDVPVVPAPESDATFELFEDSAGEFRWRLRHDNGNILADSGEGYASKSNVRRALQSVRAHVPGAAYLRVDPVAYEVYADAAGEFRWRLLHRNGNILADSGEGYSSRSNARRAARRVSELAPDSAVDDRFEVYEDAAEEWRWRLRADNGELIADSGEGYANRSKAMDAVERVQSYAADADLLAIGSAAFEVYEDKGEEWRWRLRHRNGKIIADSGEGYAERNKAVAAIERIKRHAPGATQEE | failed
MATIDLVRHAEPDITIHDDFLRPLTSAGQRQTQQLVDSLHQYPYTAFFSSPLKRAVDTITPIADDHGLPVQKNELLVERKMPAWLPNFSDYVNQQWQDLTFFEKPGESIHQVQERYLSFLYGLPSSAFVAVGSHGTAISSLVEAAIPGIGYHFFSKLGYAAVTRIEMHAGNMVHLAVWEPKSKTFKVLK | failed
MATIYLVRHGQASFGKENYDQLSPRGWEQGRILGRWLAGKVEPGAVFGGNLQRHRETVEAITTGYGVSLPDMQVLEGLNEFDHLEVVERLRPEWADKQVMARDLASFPKPAKAFQQAFEKAVARWVSGDYDHEYTETWIDFRQRVGAALDELIELAGGADVIVSTSGGPIAVIAQHLLELSDRKALEMNNVIANTSVSRILYSGPRRSLAVFNNYSHLEAEDPALVTFR | failed
MATKAIVVEGGAMRGVFASGVLDAFLERDYKPFDFAIGVSAGASNLIGYLTDYPHRSINVITKLATSKRFFDPTRFLKGGDLIDVKWLFEESNRLYPVDEKKLFEGIPFFAATTNVDTGKADYYRVTRENFHHAIEATTALPIAYKHTPCFSGGCYTDGGVADSIPVREAYRRGARDITVVLSHPLNYSKKPVKNTWLMNKLFAEHPKMAEAMLHRSENYNESLEFIRNPPQGTRVRVIAPPDEFHVQRLSMRQSVLLEGYEMGLQEGRTHITNLSGGYGLSRENCHFCL | failed
MATKNSAPLASFIDLLLDAVCAVDVEGRFVFVSAACERVFGYTADELIGRPMIELVHPADRERTLQAAREIMGGVPKPNFENRYVRKDGRVAHILWSARWSEVDQLRIAVARDITERKQAESRQAALYAISEAAHATEDLLVLFRHVHRIIGEWLPALNCSLALYDERSASLSFPYHVDDCEGSPELPGTLIERFCVEVLQCGQPLLLAPECPVNRVLWSEFAAIQGSRCWLGVPLNSQKGTIGVLMVKSAPGTESYSEQDQELLQYVSAQLAAAIERKQLHARLHYMAEYDQLTHLPNRELLRERLRSALARARRESGRMALLYVDLDKFKEVNDTCGHAVGDMLLQAVANRLKGCVRETDTVARIGGDEFVILLESVQHSEDAQRVAEKIRRTLGEPLRLDGHSLNILPSIGIGLYPEHGLEEKQLFKHADEAMYAVKRAQKSRSNA | failed
MATKRANGEGSIGKYKDGWRSRIMIGYNEDGKPLRKEFYGKTQKEVKDKLDAYKKQYYLSSDISDDKITLEHWFYNWLFEYRIKDLKPKSFERYESIYRNYIKDTDLGNVKLKYLRVSHIQKYYNRLLDSNKSIPTIRQINTKLKTCLSEAEKQGLIQRNYCTMVNIPVEKKENKLEILTLEQQKSFIKAIDGHKLEVLFLLALGTGLRLGELLGLKWFDIDFKKSNLTVKRTLQRTYFIDKTGNRELKVLEQGPKTSNSYRTVPIPKDVLNKLKEHKVNQNTDILKAGELYINNNYVFCNELGIPIDDKRPLRNLKSILNSLNIEPIKFHGLRKTYATRLFENDVPPKTVQVLMGHYDISITLNIYTQVMEDKKVEAVEKLDKIFSL | failed
MATPKLEAYRKKRDFSKTPEPVGNLTAGGNRFVVHKHHATADHYDLRLEVDGVLKSWAVPKGPSLNPADKRLAVETEDHPLDYIDFEGVIPEGEYGGGPMIVWDKGVWAPMGDVDDDLRKGAFKFRLAGEKLNGGWMLARLKRRPGEEDQRNWLLFKERDPAADTSIDILAARPESVKSGRRIEELVEKPKAPPKPVKLNPGALAGAVKAAQPERIEPQLATQTILPPEAEKDSKKPERWLHEIKFDGYRTMAHVADGKVRLVTRGGLDWTKRYGDLPEVFRRLPCRDVIIDGEIVVLDETGVSRFALLQDALSTGAGNSLVFYAFDLLHLNGWNLFDVPLEKRKALLKQLLAGQVSSRSAIQFSDHVLGEGRALYDRASEMGLEGIVSKRISAPYRSGRSKTWTKTKALKAEDFVIVGYTVSEAAEGIASLALGEWADGELEYRGKVGTGFDAQMLKELLARLEPLRAGAAKLEGAPREIIWVRPLLRAHIHYGNRTTDNVLRHAVFKGLRDVELSTPVSMSRKRLISDADLAGISITNPTRRLFGKSGPTKLDLAVYYAMIGDFMLPHILGRPVSLVRCPTGRTQDCFFQRHPFTGMPPSVATFQATNSEGEAKTYLSVEDARGYLALAQFGVVEFHNWGTTRKLLGKPDRVVFDLDPGEGIAWREVVEAAIHIKAELEALALVPFVKTSGGRGVHVVVPVVPKLDWKKFHQATSALATRLAATAPATFTTTMGKDNRIRRIFIDFHRNARSHTWAAPYSLRARTNLPASTPLSWADLETIDAPADLNYSSLPGLLATSGDPWADIDDFARDLPIL | failed
MATQAAGIFSPAITTTTSAVKKLHLFSSSHRPKSLSFTKTAIRAEKTESSSAAPAVKEAPVGFTPPQLDPNTPSPIFAGSTGGLLRKAQVEEFYVITWNSPKEQIFEMPTGGAAIMREGPNLLKLARKEQCLALGTRLRSKYKITYQFYRVFPNGEVQYLHPKDGVYPEKANPGREGVGLNMRSIGKNVSPIEVKFTGKQSYDL | failed
MATQARLPLPVGSTTSVSVVIPAKNVAAYVGETLASALAQGEVTEVIVVDDGSTDNTIAIVRAIRDPRLRLMTNDSAGVSAARNLGARHASGEWLLFLDADDRLRPGAVAALLAAARGAPRAVLVYGDYNTIDSEGRQVGRRDLLKGRRKPSGDVLTRLAASNFIVNGGIALARAEAFRAIGGFDTSLRYCEDWHCWCRLAAIGEFEFAPKLLLDYRLHTANTMNAAVRTPQDFFPAIARVFDDGLILARLPEGTAARLRQAAEIHLVTYSAMQAVRFGRYRQAFTYLGMVGRRSLKSLPRSALRVALACFGILEHHHHHH | failed
MATRQPLDATACSLMVGLCAIWGLQQVALKATASDIAPVLQIALRSGGAALLVGLLMCWRGERLGLGDGHWRPGLLVGGLFALEFLLVGEGLRYTTASHMAIFLYTAPIFAALGLHWLMPAERLKPAQWLGIGVAFGGIVVAFSGPAAAGHGGGSHVLLGDFLGVLGGVAWGATTVVVRCSRLASSPTTRTLQYQLLGAFVWLGLAALLTDQTSIHFTPLVVASLGFQVLVVSFASFLIWFTLLRRYPASRLGVLSFMTPLFGIGFGVWLLHEPLEPNFIFGALLVLAGIVMVSGYEWLRQRFKRNRESPVAPRSS | failed
MATRSCVSRGSAGSAAAGPVEAAIRAKLEQALSPEVLELRNESGGHAVPAGSETHFRVAVVSSRFEGMSPLQRHRLVHEALSEELAGPVHALAIQAKTPAQWRENPQLDISPPCLG | not failed
MATTLLSPTRFVHGLRFDNLRGDIFGGITAAIVALPLALAFGVASGAGPIAGLYGAICTGFFAALFGGTPAQISGPTGPMTVVMASTFANLTASNPENGWAMALTVVMFGGIFQVVLGLLGLGKYITFMPYTVISGFMSGIGVIIVILQIAPLLGHQTAPGVVPSLQAIPTYLNDVNFAALGLGLIALAIVFFSPPRLNRILPAPLIALVLGTIISMIFFGNVSLPRIGEIPSGLPSLHLPYLSWGSLQQMLLYSIMLAVLGSLDSLLTSLVADNISRSHHDSDRELVGQGIGNLVSGLCGGLPGAGATMRTVININSGGKTPIAGMIHALILLMIVLKAGQLTEPIPHAVLAGILIKVGIDIVDWSFLKRAHQLSTKGAGLMYLVLGLTVFVDLITAVAVGVFVANLFTVKNLTDLQLESIKSVTRADGEDWLLEEEQQILRAANGRIFMFHLSGPMSFGAAKSIARRLAIVENYDVLILDLATVPRLGVTALLAIETMLKDALAKQREVFLVGAKGQVQARLQRLPVLAQLSPHHRLESRLLALQMAAVCINVD | failed
MATTPRVDAGGGSSMFAAVPLLALPVIVYNLVALTLTGGFKATDATARMNEALFTIHMTSRTDWAVSLGDLLMAASLVVLFVELLKSTTSRKIAIINHSLSMVLFILCLVEFLLAPAFATSTFFLITLMVLLDVLAGFIVTIVAARRDVDFGDN | failed
MATTSAQTSPTEFGAGLPEAEDHSESAEPQSVEAEVIDERYADVWEKIQHARTIDVHDDAEVRKQRNFFDDKQKFMTQVTQRAEPFLYYIVSQLEARNMPLELALLPIVESGYNPLAQANGPAGLWQMIPATGRNFGLTINSAYDGRKDALASTDAVLDYLQHLYNTLGNDWINAVAGYNSGELVIKAAIDRNKAKGKPTDFWSLNIPARQVQTVPKWLAFIQIIREPSHYNLKVMPIANRPFLERLPAPNGVEISQIANAAGLTKAEFKTYNPGYRQSVIPSKGKYQIALPIENIGHYQENQHKLYAQKRYDSQTYIVKSGDSLGTIAAKFDLSVKELKQANNLTSDRLKIGQELTLLTPMAANDNEPEPVKTKANTDKSSTKANASSTKATSSKSTDKPVAKAKTYKVKSGDSLDKIARKSKVKLADLMKWNQLNAKSIIKPGQELKISELEHHHHHH | failed
MATVIAKPEAIAPEPKRRFTWPRGSRLGRLIVVLNVVALAIVIVGALILNELRNGLVNARIDSLSTQGELIANVIDQSATVGEPEPALDPYTASQIFQLLFIPRSQRARLFDAQGKALADSFVVADRVDWKVLPPARKPDQKDDDARTTPDRAAKAKRAQEALANEIAQAMRGRTVAGTRIAENGERVVSVSIPIQHVKAVLGVLTLEASDVDEIIAAQRKALLPFIAVAMLAILTSSVLLHRLIAVPVLRLARAADHVRLQGARAISLPDLSERKDELGDLSRSLEDMTHSLSERMDAIERFAADVAHEIKNPLTSIRSAIETLDLVTEPAARARLLAILQNDVNRLDRLVTDISNASRLDAELSREHPKALDLGRLLTEVVSLYENQWRPGDAPGSVRVSLSLADPSQPAIILGRETPIGQVFRNLIDNARSFSPADGEVRVTLSRTRGGLIAAVEDDGPGMPPENLETIFERFYTSRPKGRAFGGNSGLGLSIARQIVETHGGTVHAENRKDANGAVVGARFVVELPDARE | failed
